In PMC6740199 (Molecular Biology of the Cell, 2019):

Target: T1, six-histidine-tagged Bem1 (His6-Bem1), carrying Bem1 residues from 44 to 551 (S. cerevisiae, UniProt P29366 44-551)
T1 sequence: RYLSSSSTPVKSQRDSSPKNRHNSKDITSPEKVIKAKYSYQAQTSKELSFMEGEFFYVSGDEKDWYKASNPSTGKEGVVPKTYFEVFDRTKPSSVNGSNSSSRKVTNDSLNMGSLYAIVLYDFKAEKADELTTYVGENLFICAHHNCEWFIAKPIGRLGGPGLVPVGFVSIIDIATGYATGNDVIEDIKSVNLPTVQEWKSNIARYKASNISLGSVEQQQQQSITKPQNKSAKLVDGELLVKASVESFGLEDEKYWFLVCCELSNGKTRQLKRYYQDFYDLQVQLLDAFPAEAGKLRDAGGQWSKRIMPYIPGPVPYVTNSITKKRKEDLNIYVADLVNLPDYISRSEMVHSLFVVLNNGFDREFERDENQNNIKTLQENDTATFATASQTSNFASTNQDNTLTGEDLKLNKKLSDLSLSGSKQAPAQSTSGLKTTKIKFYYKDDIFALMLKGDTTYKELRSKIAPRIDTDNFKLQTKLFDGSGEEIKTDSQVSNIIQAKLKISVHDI
Assay: pull-down

binding result: binds
B1: GST (glutathione S-transferase)-Rsr1 (natural protein)
chain: MRDYKLVVLGAGGVGKSCLTVQFVQGVYLDTYDPTIEDSYRKTIEIDNKVFDLEILDTAGIAQFTAMRELYIKSGMGFLLVYSVTDRQSLEELMELREQVLRIKDSDRVPMVLIGNKADLINERVISVEEGIEVSSKWGRVPFYETSALLRSNVDEVFVDLVRQIIRNEMESVAVKDARNQSQQFSKIESPSTRLPSSAKQDTKQSNNKQSSKGLYNKSSQGQAKVKQSTPVNEKHKPSHAVPKSGSSNRTGISATSQQKKKKKNASTCTIL
